Data as given in PMC5376645, “Long-acting protein drugs for the treatment of ocular diseases” (Nature Communications, 2017).

Key:
[1] = biological target: T1, human VEGF-A165 (VEGF homodimer with each monomer having 165 amino acid residues) (Homo sapiens, UniProt P15692-4, strain, biotin (site not stated; named for Supplementary Table 2 only)); assay: SPR; Biacore as per the manufacturer's protocol; kinetic rate constants and affinity of the Fab constructs for biotinylated hVEGF-A165; details: both partners purified
T1 construct: also called hVEGF-A165; hVEGF; source: bought: Peprotech (catalogue number AF-100-20)
T1 sequence (P15692 whole entry, looked up, change not shown): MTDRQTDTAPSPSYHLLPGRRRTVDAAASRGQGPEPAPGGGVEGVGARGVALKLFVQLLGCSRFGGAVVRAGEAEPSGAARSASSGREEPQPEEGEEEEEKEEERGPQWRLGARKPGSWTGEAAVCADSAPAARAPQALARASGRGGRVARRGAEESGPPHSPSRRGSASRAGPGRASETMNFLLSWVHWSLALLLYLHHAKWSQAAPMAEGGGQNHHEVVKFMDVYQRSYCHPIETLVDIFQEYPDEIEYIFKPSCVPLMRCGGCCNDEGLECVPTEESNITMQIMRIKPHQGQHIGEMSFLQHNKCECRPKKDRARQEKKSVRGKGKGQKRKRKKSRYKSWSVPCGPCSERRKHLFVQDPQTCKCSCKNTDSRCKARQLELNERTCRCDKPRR

[2] = biological target: T1, human VEGF-A165 (VEGF homodimer with …); assay: inhibition of binding of hVEGF-A165 to hVEGFR2-Fc (luminescence read-out); antibody titrated (pM); binding signal in relative luminescence units; triplicates; details: both partners purified

Row | Kd [1] | koff [1] | kon [1] | IC50 [2] | Binder
1 |  |  |  | 0.248 nM | brolucizumab, an anti-VEGF scFv (scFv, V domains shown, NVS0 is the Fab version of this scFv) VH: EVQLVESGGGLVQPGGSLRLSCTASGFSLTDYYYMTWVRQAPGKGLEWVGFIDPDDDPYYATWAKGRFTISRDNSKNTLYLQMNSLRAEDTAVYYCAGGDHNSGWGLDIWGQGTLVTVSS VL: EIVMTQSPSTLSASVGDRVIITCQASEIIHSWLAWYQQKPGKAPKLLIYLASTLASGVPSRFSGSGSGAEFTLTISSLQPDDFATYYCQNVYLASTNGANFGQGTKLTVL
2 | 4.13 pM | 0.000257 s⁻¹ | 6.23e+07 M⁻¹ s⁻¹ |  | LAVA46, variant of LAVA1 with an additional disulfide bond in the LINK domain (Fab, V domains shown, as the Fab part of the heavy chain of Dm4 (LAVA1); linker; TSG6, human, LINK domain (HABP), with cysteine residues introduced for an additional disulfide bond and substitutions at and around the observed digestion sites; as the light chain of Dm4 (LAVA1); The substitutions are in Supplementary Data 2) VH: EVQLVESGGGLVQPGGSLRLSCTASGFSLTDYYYMTWVRQAPGKGLEWVGFIDPDDDPYYATWAKGRFTISRDNSKNTLYLQMNSLRAEDTAVYYCAGGDHNSGWGLDIWGQGTLVTVSS VL: EIVMTQSPSTLSASVGDRVIITCQASEIIHSWLAWYQQKPGKAPKLLIYLASTLASGVPSRFSGSGSGAEFTLTISSLQPDDFATYYCQNVYLASTNGANFGQGTKLTVL
3 | 11.5 pM | 0.000213 s⁻¹ | 1.86e+07 M⁻¹ s⁻¹ |  | LAVA25, non-glycosylated variant of LAVA1 (Fab, V domains shown, as the Fab part of the heavy chain of Dm4 (LAVA1); linker; TSG6, human, LINK domain (HABP), the N-linked glycosylation site deleted by substitution of the asparagine residue; as the light chain of Dm4 (LAVA1); The substitution is in Supplementary Data 2) VH: EVQLVESGGGLVQPGGSLRLSCTASGFSLTDYYYMTWVRQAPGKGLEWVGFIDPDDDPYYATWAKGRFTISRDNSKNTLYLQMNSLRAEDTAVYYCAGGDHNSGWGLDIWGQGTLVTVSS VL: EIVMTQSPSTLSASVGDRVIITCQASEIIHSWLAWYQQKPGKAPKLLIYLASTLASGVPSRFSGSGSGAEFTLTISSLQPDDFATYYCQNVYLASTNGANFGQGTKLTVL

The remaining lines, values behind:

Row | Binder | Kd [1] | koff [1] | kon [1] | IC50 [2]
4 | NVS0, the Fab version of brolucizumab (Fab, V domains shown, as the Fab part of the heavy chain of Dm4 (LAVA1), without the GSGGG linker and the LINK domain; as the light chain of Dm4 (LAVA1); Made by converting the anti-VEGF scFv brolucizumab to a Fab format; also called untagged anti-VEGF Fab) VH: EVQLVESGGGLVQPGGSLRLSCTASGFSLTDYYYMTWVRQAPGKGLEWVGFIDPDDDPYYATWAKGRFTISRDNSKNTLYLQMNSLRAEDTAVYYCAGGDHNSGWGLDIWGQGTLVTVSS VL: EIVMTQSPSTLSASVGDRVIITCQASEIIHSWLAWYQQKPGKAPKLLIYLASTLASGVPSRFSGSGSGAEFTLTISSLQPDDFATYYCQNVYLASTNGANFGQGTKLTVL | 14.2 pM | 7.87e-05 s⁻¹ | 5.51e+06 M⁻¹ s⁻¹ | 0.263 nM
5 | LAVA24, non-glycosylated variant of LAVA1 (Fab, V domains shown, as the Fab part of the heavy chain of Dm4 (LAVA1); linker; TSG6, human, LINK domain (HABP), the N-linked glycosylation site deleted by substitution of the asparagine residue; as the light chain of Dm4 (LAVA1); The substitution is in Supplementary Data 2) VH: EVQLVESGGGLVQPGGSLRLSCTASGFSLTDYYYMTWVRQAPGKGLEWVGFIDPDDDPYYATWAKGRFTISRDNSKNTLYLQMNSLRAEDTAVYYCAGGDHNSGWGLDIWGQGTLVTVSS VL: EIVMTQSPSTLSASVGDRVIITCQASEIIHSWLAWYQQKPGKAPKLLIYLASTLASGVPSRFSGSGSGAEFTLTISSLQPDDFATYYCQNVYLASTNGANFGQGTKLTVL | 8.82 pM | 0.000198 s⁻¹ | 2.25e+07 M⁻¹ s⁻¹ | 
6 | LAVA1 (NVS24): NVS0 Fab with the LINK domain of human TSG6 fused to the C terminus of the heavy chain (Fab, V domains shown, Fab heavy chain of NVS0 (from brolucizumab); linker; TSG6 (TNF-stimulated gene 6 protein), human, LINK domain; Fab light chain of NVS0 (from brolucizumab); The LINK domain has a natural N-linked glycosylation site) VH: EVQLVESGGGLVQPGGSLRLSCTASGFSLTDYYYMTWVRQAPGKGLEWVGFIDPDDDPYYATWAKGRFTISRDNSKNTLYLQMNSLRAEDTAVYYCAGGDHNSGWGLDIWGQGTLVTVSS VL: EIVMTQSPSTLSASVGDRVIITCQASEIIHSWLAWYQQKPGKAPKLLIYLASTLASGVPSRFSGSGSGAEFTLTISSLQPDDFATYYCQNVYLASTNGANFGQGTKLTVL | 0.176 pM | 1.01e-05 s⁻¹ | 5.75e+07 M⁻¹ s⁻¹ | 0.28 nM
7 | LAVA2, protease-resistant variant of LAVA1 (Fab, V domains shown, as the Fab part of the heavy chain of Dm4 (LAVA1); linker; TSG6, human, LINK domain (HABP), with amino acid substitutions around the observed proteolytic sites; as the light chain of Dm4 (LAVA1); The substitutions are in Supplementary Data 2) VH: EVQLVESGGGLVQPGGSLRLSCTASGFSLTDYYYMTWVRQAPGKGLEWVGFIDPDDDPYYATWAKGRFTISRDNSKNTLYLQMNSLRAEDTAVYYCAGGDHNSGWGLDIWGQGTLVTVSS VL: EIVMTQSPSTLSASVGDRVIITCQASEIIHSWLAWYQQKPGKAPKLLIYLASTLASGVPSRFSGSGSGAEFTLTISSLQPDDFATYYCQNVYLASTNGANFGQGTKLTVL | 4.53 pM | 0.000185 s⁻¹ | 4.1e+07 M⁻¹ s⁻¹ | 0.207 nM
8 | LAVA3, protease-resistant variant of LAVA1 (Fab, V domains shown, as the Fab part of the heavy chain of Dm4 (LAVA1); linker; TSG6, human, LINK domain (HABP), with amino acid substitutions around the observed proteolytic sites; as the light chain of Dm4 (LAVA1); The substitutions are in Supplementary Data 2) VH: EVQLVESGGGLVQPGGSLRLSCTASGFSLTDYYYMTWVRQAPGKGLEWVGFIDPDDDPYYATWAKGRFTISRDNSKNTLYLQMNSLRAEDTAVYYCAGGDHNSGWGLDIWGQGTLVTVSS VL: EIVMTQSPSTLSASVGDRVIITCQASEIIHSWLAWYQQKPGKAPKLLIYLASTLASGVPSRFSGSGSGAEFTLTISSLQPDDFATYYCQNVYLASTNGANFGQGTKLTVL | 0.161 pM | 1.19e-05 s⁻¹ | 7.39e+07 M⁻¹ s⁻¹ | 0.301 nM
9 | LAVA45, variant of LAVA1 with an additional disulfide bond in the LINK domain (Fab, V domains shown, as the Fab part of the heavy chain of Dm4 (LAVA1); linker; TSG6, human, LINK domain (HABP), with cysteine residues introduced for an additional disulfide bond and substitutions at and around the observed digestion sites; as the light chain of Dm4 (LAVA1); The substitutions are in Supplementary Data 2) VH: EVQLVESGGGLVQPGGSLRLSCTASGFSLTDYYYMTWVRQAPGKGLEWVGFIDPDDDPYYATWAKGRFTISRDNSKNTLYLQMNSLRAEDTAVYYCAGGDHNSGWGLDIWGQGTLVTVSS VL: EIVMTQSPSTLSASVGDRVIITCQASEIIHSWLAWYQQKPGKAPKLLIYLASTLASGVPSRFSGSGSGAEFTLTISSLQPDDFATYYCQNVYLASTNGANFGQGTKLTVL | 3.07 pM | 7.21e-05 s⁻¹ | 2.35e+07 M⁻¹ s⁻¹ | 
